This test has as its target Vibrio campbellii chitoporin VhChiP, wild type (Vibrio campbellii (formerly Vibrio harveyi) BAA-1116). Briefly: SEC.

The substance “Vibrio campbellii chitoporin VhChiP, wild type (natural protein)” yielded a stoichiometry N of 3.

(Values after article doi:10.1101/2020.06.24.169508.)
